Source: US20240002495A1 (MITSUBISHI TANABE PHARMA, published 2024)
Where no end group is shown, it is not given here.

Columns and labels:
[1] = biological target: T1, recombinant human IL-33 protein (residues 112 to 270) (ILC0701, ATGen Co. Ltd) (human, UniProt O95760 112-270); experiment: KinExA in PBS, alkaline-purified IgG
T1 construct: bought protein
T1 sequence: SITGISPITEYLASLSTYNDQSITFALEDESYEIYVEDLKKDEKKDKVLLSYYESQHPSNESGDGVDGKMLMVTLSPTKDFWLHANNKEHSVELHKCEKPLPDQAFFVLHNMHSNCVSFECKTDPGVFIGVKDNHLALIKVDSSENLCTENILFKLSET
Procedure: Mixture samples of a test antibody and a human IL-33 protein (ILC0701, available from ATGen Co. Ltd) were prepared. The human IL-33 protein was titrated to a constant concentration of test antibody (final concentration: several tens of pM to several hundreds of pM) over a wide concentration range of the human IL-33 protein (so that it covered the concentrations of the human IL-33 protein resulting from 12-step serial doubling dilutions, i.e. one- to 2048-fold, with the upper limit of final concentration set to several nM to several tens of nM). The mixture samples were incubated at a room temperature until the antigen-antibody reaction reached equilibrium. After the reaction reached equilibrium, the percentage of free anti-IL-33 antibody in each sample was analyzed using KinExA3200. The values of Kd were calculated by fitting the plot of percentages of anti-IL-33 antibody not bound to the human IL-33 protein (vertical axis) and concentrations of antigen (horizontal axis) to a theoretical formula, using a KinExA data analysis program (KinExA Pro Software v3.5.3, available from Sapidyne Instruments, Inc.). Beads for capturing the anti-IL-33 antibody were prepared by suspending 50 mg of Azlactone beads (Sapidyne) in 1 mL of coating solution (10 μg/mL human IL-33 protein (ILC0701, available from ATGen Co. Ltd), 50 mM sodium carbonate at pH of 9.6) and incubating the solution at a room temperature for one hour. The antibody for detection used was anti-human F(ab)′2-DyLight649 (Jackson, 309-495-006).

[2] = biological target: T2, DQSITFALEDESYEIYVEDL (PEP14) (human, not fully specified); experiment: KinExA, alkaline-purified IgG, peptide
T2 peptide: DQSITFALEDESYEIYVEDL
Procedure: (§1) The mixture samples were incubated at a room temperature until the antigen-antibody reaction reached equilibrium. After the reaction reached equilibrium, the percentage of free anti-IL-33 antibody in each sample was analyzed using KinExA3200. The values of Kd were calculated by fitting the plot of percentages of anti-IL-33 antibody not bound to the human IL-33 protein (vertical axis) and concentrations of antigen (horizontal axis) to a theoretical formula, using a KinExA data analysis program (KinExA Pro Software v3.5.3, available from Sapidyne Instruments, Inc.). Beads for capturing the anti-IL-33 antibody were prepared by suspending 50 mg of Azlactone beads (Sapidyne) in 1 mL of coating solution (10 μg/mL human IL-33 protein (ILC0701, available from ATGen Co. Ltd), 50 mM sodium carbonate at pH of 9.6) and incubating the solution at a room temperature for one hour. The antibody for detection used was anti-human F(ab)′2-DyLight649 (Jackson, 309-495-006).
(§2) The anti-IL-33 monoclonal antibodies A10-1C04 and A25-3H04 bound to the epitope PEP14 as described in the Example 1. […] These peptides were synthesized, and the affinity with the alkali-purified antibodies was calculated as Kd by the KinExA experiment as in Example 9 (Table 14).

LEDESYEIYV = biological target: T3, LEDESYEIYV (human, not fully specified (N-terminus)); experiment: KinExA, alkaline-purified IgG, peptide
T3 construct: synthetic peptide
T3 peptide: LEDESYEIYV
Procedure: as §1, §2

EDESYEIYV = biological target: T4, EDESYEIYV (human, not fully specified (N-terminus)); experiment: KinExA, alkaline-purified IgG, peptide
T4 construct: synthetic peptide
T4 peptide: EDESYEIYV
Procedure: as §1, §2

[3] = biological target: T1, recombinant human IL-33 protein …; experiment: SPR (Biacore T200), human IL-33 (ILC0701) immobilized on CM5, Calibration Free Concentration Analysis of the preserved antibody against a control-preserved sample
Procedure: Each alkaline-purified antibody was dissolved in a citrate buffer (50 mM citric acid; 150 mM NaCl (pH: 6.3)) at a concentration of about 10 mg/mL, and was preserved at a temperature of 40° C. for four weeks, to evaluate the preservation stability of each test antibody (IgG). For evaluation of the monomer purity of each antibody after the preservation, monomer purity was measured by size exclusion chromatography analysis (SEC) and microchip capillary SDS electrophoresis (mCE-SDS), and antigen-binding activity was measured by surface plasmon resonance.
In order to confirm the presence of the antigen-binding ability after the preservation, the antigen-binding activity was measured with a surface plasmon resonance system, Biacore T200 (available from GE Healthcare). A human IL-33 protein (ILC0701, available from ATGen Co. Ltd) was immobilized onto a Sensor Chip CM5 (GE Healthcare) (the amount of immobilized protein was about 3000 to 6000 RU) with Amine Coupling Kit (GE Healthcare). Each preserved antibody solution was then diluted to 10-fold with a citric buffer (50 mM citric acid, 150 mM NaCl (pH: 6.3)), and the resulting solution was analyzed to measure the total protein concentration in the solution, using a microvolume spectrophotometer, Astragene II (Astranet Systems, Ltd.) (protein concentration: about 1 mg/mL). The antibody solution after the measurement of the total protein concentration was diluted to 1000-fold with HBS-EP buffer (10 mM HEPES, 150 mM NaCl, 3 mM EDTA, 0.05% (v/v) Surfactant P20 (at pH of 7.4)). The analyte was thereby prepared. The measurement temperature was 25° C. Each analyte was added for 36 seconds at two flow rates of 5 μL/min and 100 μL/min to obtain sensorgrams of the association phase. The sensorgrams were then analyzed by Calibration Free Concentration Analysis using a data analysis program (GE Healthcare, Biacore T200 Evaluation Software v1.0) to determine the concentration of the antibody having antigen-binding activity. As control, each test antibody after preservation at a temperature of 4° C. for four weeks was also analyzed to confirm the antigen-binding activity, to calculate the ratio of antigen-binding activity of each test antibody after the preservation at a temperature of 40° C. for four weeks.

B1: A10-1C04 (IgG) (antibody, V domains shown)
VH: EVQLLESGGGLVQPGGSLRLSCAASGFTFSDYYMNWVRQAPGKGLEWVSSISRYSSYIYYADSVKGRFTISRDNSKNTLYLQMNSLRAEDTAVYYCARDIGGMDVWGQGTLVTVSS
VL: QSVLTQPPSASGTPGQRVTISCTGSSSNIGAVYDVHWYQQLPGTAPKLLIYRNNQRPSGVPDRFSGSKSGTSASLAISGLRSEDEADYYCQTYDSSRWVFGGGTKLTVL
notes: tested as neutral-purified and as alkaline-purified antibody; also called V1; IGN1
- Kd [1]: 0.1 nM
- Kd [2]: 9 nM
- Kd (LEDESYEIYV): 386 nM
- Kd (EDESYEIYV): 2070 nM
- % Active IgG (antigen binding activity after preservation at 40 C for 4 W) [3]: 99.3%
